B1: PET30 (Kaistella jeonii) (protein)
chain: QCTGATVESLTNPGPYTVATLSEADGVRNGPKYAGSTIYYPTNATPPYASIAIVPGFTAAPSSVQEWGPFYASHGIVAIIIGTNSLYDQPEARALALLDALETIKQENGRATSPLIGKLDVTKLAVSGWSMGGGGAQRAAVLDNTISAVVALCPYLTSPQLNHTVPVLIFSGQSDPTAPPSQHANVHYNTTPGTTNKLLFEVKNGNHSVANSPTGGGGAVGKLALSWLKIYLEKNDCYCSVLATAIVNSTTVSSKISQSYQCNNALGVVDSKTRFNLYPNPTKDFVQVNVREMASYQLSSSTGQIVLKGIVTSSKNQIDLSKLPAGVYYLQINGETIKVIKKQ
notes: signal peptide removed, Met added; C-terminal 6xHis (pET21a), E. coli host, Ni-NTA; PorC (T9SS) domain kept

Tests used:
PET30ΔPorC = target: T1, PET30ΔPorC (Kaistella jeonii, UniProt A0A0C1F4U8); experiment: pNP release at […] nm, relative activity; assay type: biochemical; conditions: 30°C
T1 construct: gene OA86_11720; C-terminal PorC (T9SS) sorting domain 300-366 deleted; signal peptide removed; His-tagged, E. coli host; monomer in asymmetric unit

purified protein = substrate: CCCCCC(=O)Oc1ccc([N+](=O)[O-])cc1; experiment: purified protein; assay type: biochemical, Kaistella jeonii; conditions: 30°C, pH 8

Molecule	pNP release at 405 nm, relative activity (PET30ΔPorC)	Km (purified protein) [µM]	kcat (purified protein) [s⁻¹]
CCCCCC(=O)Oc1ccc([N+](=O)[O-])cc1 [pNP-C6]	Activity tests confirmed that it was not affected in its activities using pNP-C6	–	–
B1	–	300	8.9

Reference: article PMC8767016, “The Bacteroidetes Aequorivita sp. and Kaistella jeonii Produce Promiscuous Esterases With PET-Hydrolyzing Activity” (Frontiers in Microbiology, 2022)
